Assay results from a protein production outcome set (Wang et al. 2014).

Assay: label from the status in PepcDB records

Sequence | protein production
MPGHVPPDLAVIEVTERRTRRSPAGYRPRMSEVVQVGAWGLLAGSALLLGAAIGFGVRVSQKVIATVMAFGAGVLISAVSYELVGEAYEQAGLAPAAIGTVIGAAAYTLGNLWLARRGARHRKRSGHHTAQAQPSEAQQGGSGLALAFGALLDGVPESAVIGVSLLDGGTVSTVTVAAVFISNVPEGLSSSAGMKRAGRGTTYVFGVWGAIAATSTLAAVLGYTVVGAFSPAVIAAVTAVAAGAILAMIADTMIPEAFEDAHLAIGLVTVSGFLVSFALSHV | failed
MPGLPEVAPGDDLAKLIAAVEPGLVDGDVLLVTSKIVSKAEGRIVRADDREAAIDAETVRVVARRGALRIVENRQGLVMAAAGVDASNTPSGTVLLLPEDPDASARAIRDGLRDTLGVDVGVVVTDTFGRPWRTGLTDVAIGAAGVRVLDDLRGGTDAYGNPLSATVVATADELAAAGDLVKGKAAGLPVAVVRGLPHVIAGDDEAGARAMVRGGRDDMFRLGTSEAVREAVTQRRTVRAFTDEPVDPGAVRRAVAAAVTAPAPHHTTPWRFVLLESAESRTRLLDAMRDAWIADLRGDRKTEESIAKRVRRGDVLRNAPYLVVPCMVMDGSHSYGDARRDAAEREMFVVATGAGVQNFLVALAGERLGSAWVSSTMFCRDVVRRALGLPESWEPMGAVAVGHAAEEPRDRPARDAGAFIEVRLEHHHHHH | not failed
MPGRKRKLAAKTAELAPEAGEGSESTSLVGSADASASTAAGVAHTEQQEMPSGGLHESFLESIPPAASFLEELAWVESLASPSYVAYLCQMRRFDDVVAQRRLTTLQRWRQDPAYRQHVSQPIALFFLEQLCSAEFREALRHPAVAALYERQVDLYRRCYGNLLNTGESRVLR | not failed
MPGSALLSLQQELRRGFEALKAAKDTFDGGHAECQELVSSLGNLAPQLKALKQVQISETPLSGFPCLQQRLHYKLSLAVDALLAKLAEKMAALQKVWDAFAQQVFTVVQLYEKNTDALDISVCVSRSAVCPSVSDMLEWLQDADRYYRLQLMQSRLLLQTLTPTDLTSMETAPNRWRSVRSARQEERIADALCQVSIFLETE | failed
MPGSRDILADLVAFDTVSRESNLALIDYVRDYLAGFGVDSELFFDADGRKANLYATIGPSDRGGVCLSGHTDVVPADGQAWSVPPFRLSERDGRLYGRGTADMKGYLACVLAAVPAFLAAPLRLPVHLAFSYDEEVGCLGVRSLLAALERRPHKPLLCIIGEPTELKPVLGHKGKLAMRCEVHGAACHSAYAPQGVNAIEYAARLIGRLGEIGARLAVPERHDRRFDPPYSTVQTGLIQGGRALNIVPAECRFDFEVRALPADDPRQVAEELRDYAESELLPRMRAVERSTDIRFTPLSAYPGLLTADDSQAAELIGLLSGSTDFSTVAFGTEGGLFHQAGIPAVICGPGSMDQGHKPDEFVSLAQLEACDALLARLAAW | failed
MPGWHAGGKPACRVPLLTKTGRFKRPVFSSSLSATPRFVAALRSTLLYEGAQHMLKLFVRNLPPQTTEAGLKELFTGYGKVFELQLSRDMFTGKARGTASVSMEGHEARKAIEALDGSDYEGKTIYVALDKGPRSGGRGRR | failed
MPGYQKTKDVGHFLSVTGTVIRTSLVKVLEFERDYMCNKCKHVFVIKADFEQYYTFCRPSSCPSLESCDSSKFTCLSGLSSSPTRCRDYQEIKIQEQVQRLSVGSIPRSMKVILEDDLVDSCKSGDDLTIYGIVMQRWKPFQQDVRCEVEIVLKANYIQVNNEQSSGIIMDEEVQKEFEDFWEYYKSDPFAGRNVILASLCPQVFGMYLVKLAVAMVLAGGIQRTDATGTRVRGESHLLLVGDPGTGKSQFLKYAAKITPRSVLTTGIGSTSAGIVLNCTVSPGSLVCKLNTRTTILAATNPKGQYDPQESVSVNIALGSPLLSRFDLILVLLDTKNEDWDRIISSFILENKGYPSKSEKLWSMEKMKTYFCLIRNLQPTLSDVGNQVLLRYYQMQRQSDCRNAARTTIRLLESLIRLAEAHARLMFRDTVTLEDAITVVSVMESSMEVHC | failed
MPIDQEKLAKLQKLSANNKVGGTRRKLNKKAGSSAGANKDDTKLQSQLAKLHAVTIDNVAEANFFKDDGKVMHFNKVGVQVAAQHNTSVFYGLPQEKNLQDLFPGIISQLGPEAIQALSQLAAQMEKHEAKAPADAEKKDEAIPELVEGQTFDADVE | failed
MPIFSFLLFVFISSFTPGPNNFLAMTYANQHGLKRSINFCFGVAFGFFILTSLCSFFNIVLINIIPIIEFPLKILGVAYMLYLAFKIITSKGGAGHNEKNNKNLFTVGIFLQFINPKGILFGLTVVSTFILPYYNSYSSFLLFSLFLGIVGLLSTFSWSLFGSMFQKLLLKHNQLFNIIMAVLLVFSAVSIVIH | failed
MPIIIDKDLPARKVLQEENIFVMTKERAETQDIRALKIAILNLMPTKQETEAQLLRLIGNTPLQLDVHLLHMESHLSRNVAQEHLTSFYKTFRDIENEKFDGLIITGAPVETLSFEEVDYWEELKRIMEYSKTNVTSTLHICWGAQAGLYHHYGVQKYPLKEKMFGVFEHEVREQHVKLLQGFDELFFAPHSRHTEVRESDIREVKELTLLANSEEAGVHLVIGQEGRQVFALGHSEYSCDTLKQEYERDRDKGLNIDVPKNYFKHDNPNEKPLVRWRSHGNLLFSNWLNYYVYQETPYVL | not failed
MPIIKSSRVNIGRFTIGGSIPIVIISIFDHDAKSLTEKFETKKLSDKNLYEIRFDLFDKVNIDEELEIIRALDEMDIDYIFTYRGHDPEKIYETAITKMVPAVDMDLSLLNKVNRRSPDTRIMVSYHTDSSKDMIEKLDEMLKANADIVKVACNYKDEKNFFKDLIEIAQRKEISGKPVLFIPMGKSFLRVISAYYVSDMVYAKYDKETAMGQPDPDYYNKAFSLFNYIG | failed
MPIKARETDMATRFKGLSAFPITPADEAGRVDIEAFSALIARLDAAEVDSVGILGSTGIYMYLTREERRRAIEAAATILRGRRTLMAGIGALRTDEAVALAKDAEAAGADALLLAPVSYTPLTQEEAYHHFAAVAGATALPLAIYNNPTTTRFTFSDELLVRLAYIPNIRAIKMPLPADADYAGELARLRPKLSDDFAIGYSGDWGCTDATLAGGDTWYSVVAGLLPVPALQLMRAAQAGNAEEAKRLDATFQPLWALFKEFGSIRVIYAAANILSLTVSEPPRPILPLTSAERQRVEEALEALSALETAP | not failed
MPILIVAVGVLILLFLIIKVKLNTFVSLIVVSFLVAIGLGMDINKIVLSIETGIGGQLGHLALVFGLGAMLGRLVSDAGGGYRIAITLIDKFGRKRIQAAVVVASFIIGIALFFEVGLVLLIPIVYAIAKELKMPFLYLGIPMAAALNVTHGFLPPHPAPTAISVAYGAHIGQVLLFGIIIAVPTTVIAGPLFNKFAMKRFPGAYQKHGNLSGLGPRKEFQLDETPGFAISAVTSLFPVIFMAMATIFSLLLSEHSKGKDIIEFIGTPGTAMLISLLLALYTMGYARKISMQEIGRSISESISQIAMMLLIIGGGGAFKQVLIDGGVGDYVADFFRQTNMSPLFVAWTIAAVLRLCLGSATVAALTTAGMAAPLMEAGSVNPALMVLATGAGSVIACHVNDAGFWMVKEFFGLSMKETFQTWTLLTTVLSVTGLGCVLLAGLVM | failed
MPIMGSSVYITVELAIAVLAILGNVLVCWAVWLNSNLQNVTNYFVVSLAAADIAVGVLAIPFAITISTGFCAACHGCLFIACFVLVLTQSSIFSLLAIAIDRYIAIRIPLRYNGLVTGTRAKGIIAICWVLSFAIGLTPMLGWNNCGQPKEGKNHSQGCGEGQVACLFEDVVPMNYMVYFNFFACVLVPLLLMLGVYLRIFLAARRQLKQMESQPLPGERARSTLQKEVHAAKSLAIIVGLFALCWLPLHIINCFTFFCPDCSHAPLWLMYLAIVLSHTNSVVNPFIYAYRIREFRQTFRKIIRSHVLRQQEPFKAAGTSARVLAAHGSDGEQVSLRLNGHPPGVWANGSAPHPERRPNGYALGLVSGGSAQESQGNTGLPDVELLSHELKGVCPEPPGLDDPLAQDGAGVS | not failed
MPISNPCFTSFTQPIDGYTLPEKFTFPFCYEPHPLCELAAEELQRHLEAQQEWHHNFGLSGDKSNAIGKMFGVLLVKAPTGEIGYLSAFSGKIADSNHLPYFVPPVFDMLEEDGFFKTELAEITEINATIKQLEANPQLSHLATSIQSETTASLQQIEIQRQVMIEGRKSRKAQRAAAEITAQDGTEKSAEELEQLKVVLGKESVKEKNTLRDIKLIWDEKINALQCQLNELEDALNELKTKRKNLSNGLQKKLFQQYKFLNTHGIEKDLNDIFKDTPNQIPPAGSGECAAPKLLQYAFAHGFTPLALAEFWWGIAPKSEIRQHKKFYASCQSKCQPILGHMLDGIEMDENPLLINPAEGKDLEIVYEDEFMVVVNKPADFLSVPGKNIHDSVYARIQQRYPDATGGLIIHRLDMATSGLLVLGLTPKAHKRLQQQFINRTVEKRYTALLDGVLEQDEGLITLPMRGDLYDRPRQLVCFEHGKPAETTYQVIERKENKTKVYLYPKTGRTHQLRVHCAHYLGLNMPITGDGLYGKKANRLHLHAGYLSLIHPITKEPMEFNVEAEF | not failed
MPKDNEEPLVKIPEFDERKFLFDEKERAKSIVIIFIIGAIVGSISGYFQLIGYWYLSLILILVVLLFSEYILKGLGVQVSKKTSHRILLVGEFLLTWLVFWILVLNPPLNHVSGPEIANLQMYSNNVWTSIVEKNGVYNIPFGSATSGTVSLRVYMFAYSGVVSYKVMAYQSSYAPAVIPSHLNDNYLYFNLTDVHYGSTYYVQVYGSTTVNGSNLTSEVSYTLYAE | failed
MPKIHELSETLTNQIAAGEVIERPASVVKELVENSLDAGATRIRVDFVDAGLKQIVVQDNGTGIARDQVDLAFTRHATSKISNEHDLFKVATLGFRGEALASISAVSHVEILTATKGAIGVKATFSGGNKKGQEDAAAREGTQITVRDLFFNTPARLKYLRSPRTEIMKIVDIINRLALGYPSVSFTLSNTGKVLLRTPGNGNLKQTVANVYGRHIAEKMEEFEAKDNDFKISGLMSKPELTRSTRNFVSILLNGRYIRNFQLNTAIMDGYGAKLAARHYPIIVLAIQVDPLLVDVNVHPTKQEVRLSKEKELSRLITSTISNVFIKKTEQTSAFANLENKRETLVDQLQFNLNQNVVNTARKKTPEIHENNEKPEFLAKPKKPEEEKTDYVDLNIPREDDKYIITKTWDKNVLLQQDLRPFSNTLCDSEVISSGDETLANNLPQLSYIGQIDTYIIAENNSDLFLIDQVAARRRLQFEKIYEMLLSKKIVQQGLLTPIVLEFGNLDFIQIKDKIDQIKQIGIYLEDFGQNSFIVRSYPTWIHNDVEETIRQILDGYLNLDKGKSENLFKRVAAMQAKRDISGKINLAAAEASQILIDLRKTEDPYHDADGRLVLVRMSENELKKMFKRDK | failed
MPKITVYTGKEVLQIDAKEGSSLLDILAENSLYVEAPCGGKGICGKCKVAVKKDGKPYLENITKEEKRLLTSDELQKGIRLCCNLKVFESLEVFLPHSKIGAKILSGLYTLEHHHHHH | failed
MPKKDNFSILLMGIDARPGQSMDKERSDAMVLATFNRKDKSVKLLSIPRDSYVNIPGRGYDKITHAHSLGGRDLSTETVENLLDIPVDYVMEANFSAFKEVVDELGGVPITIKEDYIVRQIKKDTKGKVNLQTGEQTLGGEEALAYVRTRKADTDLKRGERQMEVIKSIINKSKSLTSIPAYDDILDTVGKNVSMNLSLNDAIGLIPFMTSIQTVDTLQLKGSDYQPGKVYYFQLDQENLNEIKQELKQQLDVLEHHHHHH | not failed
MPKKYDEATKSKAVRLVVDHRDEYDSEYGCIRAVATRIGVGPETLRKWVRQAEIDGGERDGVTTATNRENRELKRKVAELEQTVEMLRAATTFFVRESDPRHR | failed
MPKLGMEPIRKAALVKATIVEIGRAGSLDVTVSQIAKRAGMSSALAHHYFGGKEALFIAAMRHVLSLYGAEVRGALLGAETPAARITAILQASFSATNFRREVVGAWLNFYVLAQTAPQARRLLAIYQRRLRSNLLVGLRPLAGERAADLADGLGALIDGLYLREVLKEGPPDSAAAVACARAYLNAHLKECPL | failed
MPKLLIPAIIFITLALIFYTIGVWSEHRAGILKKKHVIIFWCGLVCDTLGTYTMSRIVAAGTDKGITPTDLLIHQSTGMLAIILMLIHAVWATIVLNRGSEKAKAIFHKFSLVVWFIWLIPYFVGMYIGMTS | failed
